Results as given in US20160280798A1, “ALK ANTIBODIES, CONJUGATES, AND CHIMERIC ANTIGEN RECEPTORS, AND THEIR USE” (The United States of America, as Represented by the …, priority 2013, published 2016).
Read-outs that look alike come from different tables or passages of the source.

B1: ALK15A: anti-ALK monoclonal antibody, IgG2b; VH SEQ ID NO: 1, VL SEQ ID NO: 2 (antibody, V domains shown)
VH: DVKLQESGPGLVAPSQSLSITCTVSGFSLTSYAVSWVRQPPGKGLEWLGIIWSGGATNYNSALKSRLSISKDNSKSQVFLKMNGLQTDDTARYYCAREHYYGSSAMDYWGQGASITVSS
VL: GIVMTQSPLSLPVSLGDQASISCRSSQSIVHSYGNTYLFWYLQKPGQSPKLLIYRVSNRFSGVPDRFSGSGSGTNFTLKISRVEAEDMGVYYCFQGTHVPYTFGGGTKLEIK
modifications: Antibody variable domain sequence
B2: ALK58 monoclonal antibody (antibody, V domains shown)
VH: ALQLQQSGAELVRPGASVTLSCKASGYTFTDYEMHWVKQTPVHGLEWIGAIDPETGGTAYNQKFEGKAILTADKSSSTAYMELRSLTSEDSPVYYCARRRYYGSSSFDYWGQGTTLTVSS
VL: DVQMIQTPSSLSASLGDRVTISCRASQDIGNYLNWYQQKPDGTVKLLIYYTSRLHSGVPSRFSGSGSGTEYSLTISNLEQEDIATYFCQQGSALPPTFGGGTKLEIN
notes: Murine hybridoma antibody; also called ALK58A; ALK MAb 58
B3: ALK58A: anti-ALK monoclonal antibody; VH SEQ ID NO: 7, VL SEQ ID NO: 8 (antibody, V domains shown)
VH: B2 VH
VL: B2 VL
modifications: Antibody variable domain sequence
B4: ALK53 monoclonal antibody (antibody, V domains shown)
VH: DVQLQESGPVLVKTGASVKMSCTASGYTFTDHFMDWVKQSHGKSLEWIGSLNPYSGGTSYNQKFKGKATLTVDKSSSTAYMELNSLTSVDSAVYYCARHNWGAYFDYWGQGTTLTVSS
VL: DIVMTQAAPSVPVTPGESVSISCRSSKSLLHSNGNTYLYWFLQRPGQSPQRLIYYMSNLASGVPDRFSGRGSGTDFTLRISRVEAEDVGVYYCMQGLEDPYTFGGGTKLEIK
notes: Murine hybridoma antibody; also called ALK53A; ALK MAb 53
B5: ALK53A: anti-ALK monoclonal antibody; VH SEQ ID NO: 5, VL SEQ ID NO: 6 (antibody, V domains shown)
VH: B4 VH
VL: B4 VL
modifications: Antibody variable domain sequence
B6: ALK48 monoclonal antibody (antibody, IgG2a, V domains shown)
VH: QVQLQQSGAELVKPGASVKISCKASGYAFSSYWMNWVKQRPGKGLEWIGQIYPGDGDTTYNGKFKGKATLTADKSSSTVYMQLNSLTSEDSAVYFCVRYYYGSSGYFDYWGQGTTLTVSS
VL: DVQMIQTPDSLAVSLGQRATISCRASESVDNYGISFMHWYQQKPGQSPKLLIYRASNLESGIPARFSGSGSRTDFTLTINPVETDDVATYYCQQNNKDPPTFGGGTKLEIK
notes: Murine hybridoma antibody; also called ALK48B; ALK MAb 48
B7: ALK48B: anti-ALK monoclonal antibody, IgG2a; VH SEQ ID NO: 3, VL SEQ ID NO: 4 (antibody, V domains shown)
VH: B6 VH
VL: B6 VL
modifications: Antibody variable domain sequence
B8: ALK48: CAR construct, long format: SP-murine ALK48 scFv-CH2CH3 spacer; signaling domains not stated for the in vitro tests (antibody, V domains shown)
VH: B6 VH
VL: B6 VL
B9: ALK48SH-28z: CAR, SEQ ID NO: 50; murine ALK48 scFv, no spacer (short form), 28z (protein)
chain: LLVTSLLLCELPHPAFLLIPDTQVQLQQSGAELVKPGASVKISCKASGYAFSSYWMNWVKQRPGKGLEWIGQIYPGDGDTTYNGKFKGKATLTADKSSSTVYMQLNSLTSEDSAVYFCVRYYYGSSGYFDYWGQGTTLTVSSGGGGSGGGGSGGGGSDVQMIQTPDSLAVSLGQRATISCRASESVDNYGISFMHWYQQKPGQSPKLLIYRASNLESGIPARFSGSGSRTDFTLTINPVETDDVATYYCQQNNKDPPTFGGGTKLEIKRAAAIEVMYPPPYLDNEKSNGTIIHVKGKHLCPSPLFPGPSKPFWVLVVVGGVLACYSLLVTVAFIIFWVRSKRSRLLHSDYMNMTPRRPGPTRKHYQPYAPPRDFAAYRSRVKFSRSADAPAYQQGQNQLYNELNLGRREEYDVLDKRRGRDPEMGGKPRRKNPQEGLYNELQKDKMAEAYSEIGMKGERRRGKGHDGLYQGLSTATKDTYDALHMQALPPR
modifications: chimeric antigen receptor sequence
notes: murine ALK48 scFv, no spacer (short form), 28z

Experiments:
[1] = biological target: T1, extracellular domain of ALK (Homo sapiens, UniProt Q9UM73); settings: cited from earlier work
T1 construct: monoclonal antibodies (mAb) against the extracellular domain of ALK

[2] = test system: ALK; settings: cited from earlier work
Target sequence in this assay (Q9UM73 19-1620): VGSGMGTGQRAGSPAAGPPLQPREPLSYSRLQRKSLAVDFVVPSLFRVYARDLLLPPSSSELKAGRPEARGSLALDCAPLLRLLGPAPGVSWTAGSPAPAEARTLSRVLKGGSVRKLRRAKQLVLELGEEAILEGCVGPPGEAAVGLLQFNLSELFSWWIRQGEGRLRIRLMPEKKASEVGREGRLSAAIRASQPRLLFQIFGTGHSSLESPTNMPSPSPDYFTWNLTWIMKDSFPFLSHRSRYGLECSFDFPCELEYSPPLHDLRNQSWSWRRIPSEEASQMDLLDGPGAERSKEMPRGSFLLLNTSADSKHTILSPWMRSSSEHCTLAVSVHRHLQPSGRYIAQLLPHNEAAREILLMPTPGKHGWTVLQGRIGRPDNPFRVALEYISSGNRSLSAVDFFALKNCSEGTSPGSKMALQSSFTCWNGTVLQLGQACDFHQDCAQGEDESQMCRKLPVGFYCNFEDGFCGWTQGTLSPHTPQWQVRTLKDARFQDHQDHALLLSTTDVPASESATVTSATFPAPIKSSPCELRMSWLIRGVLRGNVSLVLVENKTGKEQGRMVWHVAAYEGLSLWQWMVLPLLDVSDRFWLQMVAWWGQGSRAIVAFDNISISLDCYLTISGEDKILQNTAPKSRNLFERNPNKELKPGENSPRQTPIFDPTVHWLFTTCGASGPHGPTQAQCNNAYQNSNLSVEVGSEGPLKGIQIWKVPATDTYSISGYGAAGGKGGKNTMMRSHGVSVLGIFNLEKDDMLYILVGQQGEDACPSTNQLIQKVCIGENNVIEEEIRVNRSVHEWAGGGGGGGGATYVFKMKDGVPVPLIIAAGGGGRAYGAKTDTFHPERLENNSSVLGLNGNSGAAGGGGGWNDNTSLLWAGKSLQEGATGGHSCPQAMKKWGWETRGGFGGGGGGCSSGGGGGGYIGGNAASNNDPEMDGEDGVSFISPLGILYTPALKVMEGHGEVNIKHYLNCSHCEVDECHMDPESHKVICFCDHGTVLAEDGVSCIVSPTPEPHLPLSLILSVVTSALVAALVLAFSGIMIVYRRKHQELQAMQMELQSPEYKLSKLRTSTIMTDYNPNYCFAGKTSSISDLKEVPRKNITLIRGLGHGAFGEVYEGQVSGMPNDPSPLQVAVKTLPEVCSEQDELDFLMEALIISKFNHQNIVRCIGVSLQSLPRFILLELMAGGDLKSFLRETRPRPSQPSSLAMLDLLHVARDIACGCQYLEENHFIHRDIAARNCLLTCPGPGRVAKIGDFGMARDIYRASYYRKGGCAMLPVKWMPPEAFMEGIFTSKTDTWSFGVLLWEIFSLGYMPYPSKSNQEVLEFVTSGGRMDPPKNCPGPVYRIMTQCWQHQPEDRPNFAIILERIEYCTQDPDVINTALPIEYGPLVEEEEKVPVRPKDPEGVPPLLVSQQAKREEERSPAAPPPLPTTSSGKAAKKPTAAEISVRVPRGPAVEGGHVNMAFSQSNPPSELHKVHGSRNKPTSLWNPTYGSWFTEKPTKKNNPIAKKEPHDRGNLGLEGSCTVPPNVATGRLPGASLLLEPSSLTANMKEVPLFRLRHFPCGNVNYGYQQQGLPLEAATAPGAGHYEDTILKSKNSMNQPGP

[3] = biological target: T2, human anaplastic lymphoma kinase (ALK) protein (human, UniProt Q9UM73 19-1620); test: flow cytometry on tumor cell lines expressing ALK
T2 construct: Endogenous ALK on tumor cell lines (SY5Y, LAN5, KCNR, IMR32, Rh18); also called CD246; cell surface ALK
Protocol: Cell lines used in these studies were: Sy5Y, LAN5, K562, Rh18, IMR32, KCNR. Cells were cultured in RPMI-1640 supplemented with 2 mM lgln, 10 mM HEPES, Pen/Strep, (Gibco, Life Technologies, Grand Island, N.Y.) and 10% FBS (Omega Scientific, Tarzana, Calif.). Anti-ALK antibodies were produced as described previously: ALK15A (IgG2b, weak agonist, membrane proximal binding), ALK48B (IgG2a, agonist, membrane proximal binding), ALK53A, ALK58A (binds to a membrane distal epitope) (Mazot et al., Oncogene, 30, 2017-2025, 2011; Moog-Lutz et al., J Biol. Chem., 280, 26039-26048, 2005). Staining for ALK expression on tumor lines was performed as follows: 2.5 μL primary antibody (1 mg/ml conc.) per 1 million cells was added to cells on ice in FACS buffer, FB, (PBS, 0.5% BSA, 0.02% NaN3) for 20 minutes, cells were washed twice, then stained with 5 μL FITC-F(ab′)2 Fragment Goat Anti-Mouse IgG+IgM (H+L) secondary antibody (Jackson ImmunoResearch, 1 mg/ml) for 20 minutes, washed, then analyzed by flow cytometry.
As reported previously, ALK MAbs 7, 48, 53, and 58 were able to detected ALK expression on tumor cell lines by flow cytometry. The ALK-specific MAb was used to define the expression of ALK on a series of neuroblastoma call lines, and a rhabdomyosarcoma cell line. FIG. 1 illustrates that the neuroblastoma cell lines SY5Y, LAN5, KCNR, IMR32, all express cell surface ALK, as does the rhabdomyosarcoma cell line Rh18. The differences in expression were quite varied with the SY5Y staining the brightest for ALK expression. This was true when the other MAbs specific for ALK were tested as well.

[4] = test system: ALK; settings: flow cytometry; as reported previously; cited from earlier work
Target sequence in this assay (Q9UM73 19-1038 limits assumed): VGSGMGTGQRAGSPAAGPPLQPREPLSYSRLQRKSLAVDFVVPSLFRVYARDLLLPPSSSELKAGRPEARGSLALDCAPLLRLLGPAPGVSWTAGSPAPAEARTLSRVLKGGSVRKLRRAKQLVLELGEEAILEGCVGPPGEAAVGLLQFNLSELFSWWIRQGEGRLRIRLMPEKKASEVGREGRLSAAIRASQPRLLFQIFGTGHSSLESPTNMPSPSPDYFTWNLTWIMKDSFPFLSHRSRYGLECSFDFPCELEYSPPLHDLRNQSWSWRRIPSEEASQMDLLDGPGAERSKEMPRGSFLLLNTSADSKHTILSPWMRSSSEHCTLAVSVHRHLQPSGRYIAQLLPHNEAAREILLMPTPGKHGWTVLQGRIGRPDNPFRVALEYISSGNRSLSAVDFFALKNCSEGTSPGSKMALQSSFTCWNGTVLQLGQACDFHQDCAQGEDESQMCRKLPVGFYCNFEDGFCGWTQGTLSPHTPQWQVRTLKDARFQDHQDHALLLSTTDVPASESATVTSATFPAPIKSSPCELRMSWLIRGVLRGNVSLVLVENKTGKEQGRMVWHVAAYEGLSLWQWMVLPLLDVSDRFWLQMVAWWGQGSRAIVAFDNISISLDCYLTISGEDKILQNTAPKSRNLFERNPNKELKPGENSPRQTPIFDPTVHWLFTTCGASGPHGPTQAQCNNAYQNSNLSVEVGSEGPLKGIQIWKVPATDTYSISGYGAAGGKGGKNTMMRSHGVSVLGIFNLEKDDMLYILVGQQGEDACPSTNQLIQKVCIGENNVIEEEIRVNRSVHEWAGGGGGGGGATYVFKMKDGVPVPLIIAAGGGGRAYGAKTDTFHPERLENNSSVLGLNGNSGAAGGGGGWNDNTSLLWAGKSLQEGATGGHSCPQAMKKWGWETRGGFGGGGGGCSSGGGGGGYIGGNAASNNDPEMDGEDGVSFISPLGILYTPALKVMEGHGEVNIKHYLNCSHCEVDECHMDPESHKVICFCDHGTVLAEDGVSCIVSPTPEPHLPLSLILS

[5] = test system: tumor cell lines (LAN5 SY5Y, Rh18, K562); test: Cytokine release on co-culture of CAR T cells with tumor cell lines; type: cell-based; settings: 24-hour co-culture with tumor cell lines; FIG. 6
Protocol: FIGS. 6A-6C show a series of graphs illustrating cytokine activity of the disclosed CAR T Cells. PBMC were transduced with the indicated CAR constructs, and incubated with tumor targets (LAN5 SY5Y, Rh18, K562 as indicated in legend), and supernatants collected after 24 hours and tested for the presence of cytokine by a MesoScale mutli-analyte detection system. […] Controls include mock transduced cells, tumor only, and T cells without tumor target, as indicated.
T cell cytolytic function was assayed in standard 51Cr release assays as described elsewhere (Haso et al., (2013) Blood, 121, 1165-1174). Cytokine release was assayed by co-incubating 25,000 T cells with 25,000 tumor cell targets in cRPMI. At 24 hours culture media was collected and cytokines measured (Human TH1/TH2 multiplex, Meso Scale Discovery, Rockville, Md.).

[6] = test system: ALK+ human neuroblastoma cells (SY5Y cells); test: SY5Y neuroblastoma xenograft assay; type: in vivo; settings: transduced T cells given on day 13, no treatment on day 6
Protocol: NSG mice were injected s.c. on day 0 with 5×10^6 human neuroblastoma cells (SY5Y in vivo passaged and re-cultured as a new line, SY5Y.P1). On day 6, 5.1×10^6 ALK48-28z CAR(+)ve T cells were injected r.o. (34% positive/15 million total). CAR-treated mice were given a cocktail of (0.9 μg IL-7+6.6 μg M25 anti-IL7 mAb) i.p. every 2-3 days, for the time period indicated above. Survival statistics were calculated using Log-rank (Mantel-Cox) analysis (Prism Software, Inc.). On day 13, 3.2×10^6 ALK48SH-trasnduced T cells were given. The experiment was ended on day 64 due to graft vs host disease-like symptoms, standardly encountered in the NSG model system.
NOD scid gamma (NSG) mice were inoculated with ALK+ human neuroblastoma cells (SY5Y cells). On day 6, the mice were treated with human T cells transduced to express the murine ALK specific ALK48-28z CAR (SEQ ID NO: 49, long form CAR with CH2CH3 spacer domain) or mock treated T cells. […] In a separate set of mice, on day 13 post inoculation (and without any treatment on day 6), the mice were treated with ALK48SH-28z (SEQ ID NO: 50, short form CAR without spacer domain) transduced T cells.
The mice also received biweekly injections of IL-7 complexed to anti-IL7 antibody to promote T cell persistence. […] The other two groups all died of tumor.

T1 sequence (Q9UM73 19-1038 limits assumed): as above
T2 sequence (Q9UM73 19-1620 limits assumed): as the sequence (Q9UM73 19-1620) above

| Molecule | location of epitope on ALK [1] | agonist activity on ALK [2] | binding result [3] | detection of ALK expression on tumor cell lines [4] | further results |
| --- | --- | --- | --- | --- | --- |
| B1 | membrane proximal binding | weak agonist | – | – | – |
| B2 | – | – | binds | – | – |
| B3 | membrane distal epitope | activating | – | able to detected ALK expression | form of ALK bound (220 kD / 140 kDa cleaved) [1]: only the 220 KDa form; location of epitope on ALK ([1]; listed as clone 58): more distal cleaved region; phosphorylation of the receptor upon binding [2]: induce phosphorylation |
| B4 | – | – | binds | – | – |
| B5 | – | – | – | able to detected ALK expression | – |
| B6 | – | – | binds | – | – |
| B7 | membrane proximal binding | agonist | – | able to detected ALK expression | form of ALK bound (220 kD / 140 kDa cleaved) [1]: both; location of epitope on ALK ([1]; listed as clone 48): closer to the cell surface membrane; phosphorylation of the receptor upon binding [2]: induce phosphorylation; agonist activity on ALK ([2]; listed as mAb 48): activating |
| B8 | – | – | – | – | IFN-gamma production [5]: Strong; IL-2 production [5]: lower levels; TNF-alpha production [5]: lower levels |
| B9 | – | – | – | – | effect on survival [6]: no effect on survival |
